Laboratory results taken from patent US20250084155A1 (University of Texas, published 2025).

Legend:
[1] = target: human HSP70 made in E. coli (human, UniProt P0DMV8 1-641, limits assumed); assay: Octet (BLI)
[2] = target: T1, human HSP70 made in Sf9 insect cells (human, UniProt P0DMV8 1-641, limits assumed); assay: Octet (BLI)
T1 construct: also called HSP70 made in eukaryotic insect Sf9 cells

murine HSP70 = murine HSP70 (murine, UniProt P17879 1-642); assay: Octet (BLI)
[3] = target: T2, ADP-HSP70 (ADP-enriched HSP70, expressed in SF9 cells) (human, UniProt P0DMV8 1-641, limits assumed); assay: BLI, 77A on sensor
T2 sequence (P0DMV8 whole entry): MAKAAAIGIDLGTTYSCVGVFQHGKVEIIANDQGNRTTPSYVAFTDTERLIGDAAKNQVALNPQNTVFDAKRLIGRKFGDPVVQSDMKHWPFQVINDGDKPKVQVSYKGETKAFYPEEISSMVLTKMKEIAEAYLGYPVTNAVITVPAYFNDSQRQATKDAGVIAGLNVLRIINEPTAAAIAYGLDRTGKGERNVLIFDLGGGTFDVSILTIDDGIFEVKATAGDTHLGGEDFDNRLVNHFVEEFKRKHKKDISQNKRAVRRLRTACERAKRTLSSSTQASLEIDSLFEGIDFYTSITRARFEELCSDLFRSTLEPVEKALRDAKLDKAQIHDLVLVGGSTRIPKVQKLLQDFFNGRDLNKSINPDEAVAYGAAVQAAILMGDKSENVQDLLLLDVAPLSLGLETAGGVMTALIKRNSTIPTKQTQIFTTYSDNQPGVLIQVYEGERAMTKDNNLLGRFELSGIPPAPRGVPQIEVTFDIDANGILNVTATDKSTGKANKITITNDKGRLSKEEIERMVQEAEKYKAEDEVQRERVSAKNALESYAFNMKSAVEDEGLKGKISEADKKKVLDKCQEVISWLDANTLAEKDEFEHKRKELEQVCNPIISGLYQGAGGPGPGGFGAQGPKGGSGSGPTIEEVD
Experimental: (§1) HSP70 was expressed in SF9 cells. Affinity chromatography using resins selective for ADP or ATP-binding proteins were used to enrich bulk preparations of the correspondingly bound HSP70 recombinant protein. Protein concentrations, determined after elution, were measured so that equal concentrations could be used in subsequent assays. For BLI-based assays, antibodies and reagents were diluted out onto microwell plates and loaded into the instrument. Antibodies being tested were immobilized onto dip-and-read sensors and then observed for kinetics during binding to ATP or ADP-enriched HSP70. For ELISA, the relevant enriched HSP70 proteins were directly coated onto ELISA plate wells overnight. Test antibodies were then serially diluted across the plate wells, and detected using an appropriate secondary antibody-HRP conjugate. The plates were developed using a TMB substrate, and the O.D. stabilized using an acid stop solution.

[4] = target: T2, ADP-HSP70 (ADP-enriched HSP70, …); assay: ELISA, HSP70 coated
Experimental: as §1
(§2) ELISA data, shown in FIG. 18, depicted the same trend, in which 77A had higher maximal absorbance with the ADP-enriched HSP70 than the ATP-enriched HSP70.

[5] = target: T3, ATP-HSP70 (ATP-enriched HSP70, expressed in SF9 cells) (human, UniProt P0DMV8 1-641, limits assumed); assay: ELISA, HSP70 coated
T3 sequence (P0DMV8 whole entry): as above
Experimental: as §1, §2

[6] = target: T4, HSP70 (human HSP70; the antigen of the binning, humanization and variant binding assays) (human, UniProt P0DMV8 1-641, limits assumed); assay: BLI, antibody on sensor
T4 construct: also called hu HSP70
T4 sequence (P0DMV8 whole entry, change not shown): as the sequence (P0DMV8 whole entry) above
In short: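 Antibodies immobilized on biolayer interferometry sensors, baseline taken, then dipped into HSP70 antigen solution or buffer. Binding followed as interference-pattern shift; kinetic constants derived by modeling from the signals and reagent concentrations.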

[7] = target: T2, ADP-HSP70 (ADP-enriched HSP70, …); assay: BLI, 77A on sensor, ADP-HSP70 at 75 (µM)
Experimental: as §1

[8] = target: T3, ATP-HSP70 (ATP-enriched HSP70, …); assay: BLI, 77A on sensor, ATP-HSP70 at 75 (µM)
Experimental: as §1

[9] = target: T2, ADP-HSP70 (ADP-enriched HSP70, …); assay: BLI, 77A on sensor, ADP-HSP70 at 150 (µM)
Experimental: as §1

[10] = target: T2, ADP-HSP70 (ADP-enriched HSP70, …); assay: BLI, 77A on sensor, ADP-HSP70 at 300 (µM)
Experimental: as §1

[11] = target: T3, ATP-HSP70 (ATP-enriched HSP70, …); assay: BLI, 77A on sensor, ATP-HSP70 at 150 (µM)
Experimental: as §1

[12] = target: T3, ATP-HSP70 (ATP-enriched HSP70, …); assay: BLI, 77A on sensor, ATP-HSP70 at 300 (µM)
Experimental: as §1

[13] = target: T2, ADP-HSP70 (ADP-enriched HSP70, …); assay: BLI, 77A on sensor, ADP-HSP70 at 37.5 (µM)
Experimental: as §1

504 = target: T5, 504 (N-terminal GFP fusion; GFP is not in the letters); assay: immunoprecipitation with 77A from extracts of HSP70 KO 293T cells, Western blot with anti-GFP [panel B]
T5 construct: not shown: N-terminal GFP fusion partner and any linker

Chain of murine HSP70 (P17879 other isoform, or with tags, fused parts or gaps): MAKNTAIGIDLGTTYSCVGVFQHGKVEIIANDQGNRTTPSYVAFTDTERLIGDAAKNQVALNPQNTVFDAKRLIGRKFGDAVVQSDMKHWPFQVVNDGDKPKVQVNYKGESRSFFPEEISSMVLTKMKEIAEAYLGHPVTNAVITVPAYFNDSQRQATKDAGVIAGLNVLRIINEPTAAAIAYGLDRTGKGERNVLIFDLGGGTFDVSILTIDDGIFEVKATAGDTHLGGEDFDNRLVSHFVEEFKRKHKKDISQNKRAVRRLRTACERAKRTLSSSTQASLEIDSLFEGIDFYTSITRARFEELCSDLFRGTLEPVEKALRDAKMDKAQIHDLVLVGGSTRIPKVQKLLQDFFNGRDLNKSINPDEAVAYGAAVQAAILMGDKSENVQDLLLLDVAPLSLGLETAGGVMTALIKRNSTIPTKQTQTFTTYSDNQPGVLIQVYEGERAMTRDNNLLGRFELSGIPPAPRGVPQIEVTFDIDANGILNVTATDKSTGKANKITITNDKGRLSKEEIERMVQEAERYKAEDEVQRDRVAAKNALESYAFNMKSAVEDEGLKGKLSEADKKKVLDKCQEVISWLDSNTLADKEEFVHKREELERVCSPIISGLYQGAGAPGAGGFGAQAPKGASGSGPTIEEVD
Chain of human HSP70 made in E. coli (P0DMV8 whole entry): as the sequence (P0DMV8 whole entry) above
T1 sequence (P0DMV8 whole entry): as above

B1: 77A antibody (clone 77A, murine anti-HSP70 monoclonal antibody) (antibody, V domains shown)
VH: QIQLVQSGPELKKPGETVKISCKASGYTFTNYGMNWVKQAPGKGLKWMGWINTYTGEPTYADDFKGRFAFSLETSATTAYLQINNLKNEDTATYFCARYDHAMDYWGQGTSVTVSS
VL: DIVMSQSPSSLAVSAGEKVTMSCKSSQSLLNSGTRKNYLAWYQQKPGQSPKLLIYWTSTRESGVPDRFTGSGSGTDFTLTINSVQAEDLAVYYCKQSYTLYTFGGGTKLEIK
notes: murine hybridoma antibody; its isotype control is IgG2B; also called mAb 77A
- Kd [1]: 0.85 nM
- Kd [2]: < 0.001 nM
- Kd (murine HSP70): 988 nM
- fold greater affinity (KD) than ATP-enriched HSP70 [3]: ≥ 4 fold
- EC50 [4]: 0.737 nM
- EC50 [5]: 1.77 nM
- Kd [6]: 1.2 nM
- koff [6]: 8.08e-05 s⁻¹
- kon [6]: 67400 M⁻¹ s⁻¹
- Kd [7]: 5.42 nM
- koff [7]: 0.000292 s⁻¹
- kon [7]: 53800 M⁻¹ s⁻¹
- Kd [8]: 20.2 nM
- koff [8]: 0.00038 s⁻¹
- kon [8]: 18800 M⁻¹ s⁻¹
- Kd [9]: 5.42 nM
- koff [9]: 0.000292 s⁻¹
- kon [9]: 53800 M⁻¹ s⁻¹
- Kd [10]: 5.42 nM
- koff [10]: 0.000292 s⁻¹
- kon [10]: 53800 M⁻¹ s⁻¹
- Kd [11]: 20.2 nM
- koff [11]: 0.00038 s⁻¹
- kon [11]: 18800 M⁻¹ s⁻¹
- Kd [12]: 20.2 nM
- koff [12]: 0.00038 s⁻¹
- kon [12]: 18800 M⁻¹ s⁻¹
- Kd [13]: 5.42 nM
- koff [13]: 0.000292 s⁻¹
- kon [13]: 53800 M⁻¹ s⁻¹
- binding result 504: no binding
